Publication PMC9411207, “Designed peptides as nanomolar cross-amyloid inhibitors acting via supramolecular nanofiber co-assembly” (Nature Communications, 2022)
Square brackets hold non-standard residues; d marks the D form. Ends that are not written are not given here. NMeF = CN[C@@H](Cc1ccccc1)C(=O)O; NMeL = CN[C@@H](CC(C)C)C(=O)O; NMeV = CN[C@H](C(=O)O)C(C)C; Nle = CCCC[C@H](N)C(=O)O

T1: N-terminal fluorescein-labeled IAPP (human, UniProt P10997 34-70, fluorescein on the N-terminus; subjected to air-oxidation)
T1 construct: also called Fluos-IAPP; source: synthetic peptide (Fmoc-SPPS, air-oxidation, RP-HPLC purified)
T1 chain (looked up): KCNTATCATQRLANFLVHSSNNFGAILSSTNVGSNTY


Tests used:
[1] = molecular target: T1, N-terminal fluorescein-labeled IAPP; assay: other fluorescence titration; N-terminal fluorescently-labeled peptide (5 nM) titrated with unlabeled peptide; 10 mM sodium phosphate buffer, pH 7.4 (1% HFIP); measured within 2–5 min after preparation; apparent KDs from 1/1 binding models; settings: both partners purified
[2] = molecular target: T2, Fluorescein-isothiocyanate-β-Ala-labeled Aβ42 (UniProt P05067 672-713, fluorescein-isothiocyanate-β-Ala on the N-terminus); assay: as above; settings: both partners purified
T2 construct: amyloid-β peptide Aβ42, the 42-residue cut product of the amyloid precursor protein; also called FITC-Aβ42; N-terminal FITC-labeled Aβ42; source: bought: Bachem

[3] = molecular target: the molecule itself; assay: SEC; Superdex 75 10/300 GL, 50 mM sodium phosphate pH 7.4, 100 mM NaCl; IAPP (16.5 µM) alone or with Nle3-VF (1/2) incubated in ThT buffer, 0 h and 96 h

T2 sequence (P05067 672-713): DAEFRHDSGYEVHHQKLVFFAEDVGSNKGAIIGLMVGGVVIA

Kd [1] [nM] | Kd [2] [nM] | Binder | stoichiometry N [3]
143 | 2.6 | QK[NMeL]V[NMeF]FAEDLLLNKGAIIGL[Nle]VGGVV [L3-LF] | 
55.4 | 11.1 | QK[NMeL]V[NMeF]FAED[Nle][Nle][Nle]NKGAIIGL[Nle]VGGVV [Nle3-LF] | 
77.3 | 38 | QKL[NMeV]F[NMeF]AEDLLLNKGAIIGL[Nle]VGGVV [L3-VF] | 
69.5 | 14.5 | QKL[NMeV]F[NMeF]AED[Nle][Nle][Nle]NKGAIIGL[Nle]VGGVV [Nle3-VF] | 2
15 | 161 | QKL[NMeV]F[NMeF]AEDFFFNKGAIIGL[Nle]VGGVV [F3-VF] | 
37.6 | 431 | QK[NMeL]V[NMeF]FAEDFFFNKGAIIGL[Nle]VGGVV [F3-LF] | 
